The record followed here is patent US20210032330A1 (PHANES THERAPEUTICS, published 2021).

Assay [1] deals with T1, human T-cell immunoglobulin and mucin-domain containing molecule 3 (TIM-3) (human, UniProt Q8TDQ0 22-200, limits assumed).
T1 construct: also called Human TIM-3
The assay can be described thus: competition ELISA: pre-equilibrated mixture of mAb and human TIM3(ECD)-huFc on plate-coated phosphatidylserine (PtdSer, a lipid), anti-huFc-HRP detection, % inhibition. On the technique in general: In an ELISA, binding on a coated surface is turned into a signal by an enzyme label.
Procedure: (§1) ELISA plates were coated with PtdSer or PtdChol, washed and incubated with a pre-equilibrated mixture of purified antibodies at various concentrations and TIM3(ECD)-huFc. The plates were washed and then the signal was detected by incubation with HRP-coupled anti-huFc secondary antibody and then a HRP substrate. TIM-3 binding to PtdSer was used as 100% signal and TIM-3 binding to PtdChol as zero (background) to calculate percent of inhibition by a given mAb.
(§2) To determine the effect of anti-TIM-3 antibodies on the interaction of TIM-3 with phosphatidylserine (PtdSer), 384-well ELISA plates were coated with PtdSer or phosphatidylcholine (PtdChol) at room temperature. The wells were washed using PBS supplemented with 0.1% Tween-20 and then blocked using PBS supplemented with 2% bovine serum albumin (BSA). […] The plates were washed and then incubated with HRP-coupled anti-huFc secondary antibody. Plates were washed, incubated with an HRP substrate, and read using a POLARstar Omega Microplate (BMG LABTECH). The assay was performed in triplicate.

The target of assay [2] is T1, human T-cell immunoglobulin and …. The description is as above. This is another data set of the same source.
Procedure: as §1, §2
Assay [3] has the same target. The assay can be described thus: FACS on HEK293 cells transiently transfected with human TIM-3 (HuTIM-3 cells) against parental HEK293 cells (CTL cells), anti-mouse AlexaFluor488 secondary, MFI.
Procedure: The binding of purified anti-TIM-3 mAbs to HEK293 cells transiently transfected with human TIM-3 (labeled as “HuTIM-3 cells”) or parental HEK293 cells (labeled as “CTL cells”) was tested by FACS at 3 different concentrations. An anti-mouse secondary Ab AlexaFluor488 was used for detection.
A human TIM-3-expressing plasmid was made and transiently transfected into HEK293T cells. After approximately 48 hours, cells were transferred to a 384-well V-bottom plate. Cells were washed with ice-cold FACS buffer (PBS supplemented with 1% BSA) and incubated with purified mAbs with gentle agitation at 4° C. for 45 minutes. The cells were washed with FACS buffer and incubated with an anti-mouse secondary Ab AlexaFluor488. The cells were washed and analyzed by FACS.

B1: 19-A14-A (antibody, V domains shown)
VH: DVQLQGSGPGLVKPSQSLSLTCTVTGYSITSDYAWNWIRQFPGNILEWMGYISYSGSTSYNPSLKSRISITRDTSKNQFFLQLNSVTTEDTATYYCARDGRYDYYAMDYWGQGTSVTVSS
VL: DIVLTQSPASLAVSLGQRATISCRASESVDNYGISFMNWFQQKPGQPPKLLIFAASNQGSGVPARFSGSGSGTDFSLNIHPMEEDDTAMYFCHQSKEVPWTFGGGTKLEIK
notes: also called anti-TIM-3 monoclonal antibody 19-A14-A
In the case of B1, in assay [1], the “IC50 (read off the curve)” value is approximately 7 nM.

B2: 18-O22-A (antibody, V domains shown)
VH: EVQLQQSGPELVKPGASVKVSCKASGYTFTSYVMHWVKQKPGQGLEWIGYINPYNDVTKYNEKFKGKATLTSDKSSSTAYMELSSLTSEDSAVYYCARSSDYDDGHWYFDVWGAGTTVTVSS
VL: DIVLTQSPASLAVSLGQRATISCKASQSVDYDGESYMNWYQQKPGQPPKLLIYVASNLESGIPVRFSGSGSGTDFTLNIHPVEEEDAATYYCQQSNEDPTWTFGGGTKLEIK
notes: also called anti-TIM-3 monoclonal antibody 18-O22-A
For the molecule B2, the binding result in assay [2] was “binds”.

B3: 2-K2-A (antibody, V domains shown)
VH: QVQLQQSGAELAKPGASVKMSCKASGYTFTTYWMHWVKQRPGQGLEWIGYINPSTGYTEYNQKFKDKSTLTADKSSSTAYMQLSSLTSEDSAVYYCANDHEGGFAYWGQGTLVTVSA
VL: DILMTQSPSSMSVSLGDTVSITCHASQGISSNIGWLQQKPGKSFKGLIYHGTNLEDGVPSRFSGSGSGADYSLTISSLESEDFADYYCVQYAQFPFTFGSGTKLEIK
notes: also called anti-TIM-3 monoclonal antibody 2-K2-A
B3: the binding result in assay [3] was “binds”.

B4: 12-G18-A (antibody, V domains shown)
VH: DVQLQESGPGLVKPSQSLSLTCTVTGYSITSDYAWNWIRQFPGNKLEWMGYISYSGSTSYNPSLKSRISITRDTSKNQFFLQLNSVTIGDTATYYCASNYRYDYWFFGVWGAGTTVTVSS
VL: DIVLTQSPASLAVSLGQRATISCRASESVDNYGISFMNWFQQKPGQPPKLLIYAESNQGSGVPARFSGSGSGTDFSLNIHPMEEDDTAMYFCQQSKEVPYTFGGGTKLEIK
notes: also called anti-TIM-3 monoclonal antibody 12-G18-A
For the molecule B4, the “IC50 (read off the curve)” value in assay [1] was approximately 6 nM.

B5: 5-C11-A (antibody, V domains shown)
VH: EVQLVESGGGLVKPGGSLKLSCAASGFTFSDFYMYWVRQTPEKRLEWVATISDGGSYTYYPDSVKGRFTISRDNAKNNLYLQMSSLKSEDTAMYYCASGYYYGSDYVMDYWGQGTSVTVSS
VL: DIVMSQSPSSLAVSAGEKVTMSCKSSQSLLNSRTRKNYLAWYQQKPGQSPKLLIYWASTRESGVPDRFTGSGSGTDFTLTISSVQADDLAVYYCKQSYNLLTFGAGTKLELK
notes: also called anti-TIM-3 monoclonal antibody 5-C11-A
Consider B5, for which, in assay [3], the binding result is recorded as “binds”.
